Reference: patent US20240043528A1, “NANOBODY-OGA FUSIONS AND USES THEREOF” (President and Fellows of Harvard College, priority 2020, published 2024)

System: O-GlcNAcylated proteome
Assay: Quantitative TMT mass spectrometry of enriched O-GlcNAcylated proteome
Assay type: cell-based, human
Conditions: co-expression of GFP-Sp1, versus N2(D174N)+C3, n=4
Description: Purification of GalT1 (Y289L) enzyme and labeling of O-GlcNAcylated proteins with GalNAz were performed according to the procedure of Hsieh-Wilson and co-workers (Thompson, J. W., Griffin, M. E. & Hsieh-Wilson, L. C. Methods for the Detection, Study, and Dynamic Profiling of O-GlcNAc Glycosylation. Methods Enzymol. 2018, 598, 101-135). Briefly, cell samples in 6-well plates or 15-cm dishes were harvested and washed by PBS once. The lysis buffer (PBS with 2% SDS) was added into cell pellets and heated for 5 min at 95° C., followed by the sonication to sheer DNA. Protein concentrations were determined by BCA assay. Cell lysates were reduced and alkylated with 25 mM DTT at 95° C. for 5 min and 50 mM iodoacetamide at room temperature for 1 h respectively. Proteins were precipitated by the methanol/chloroform solution (aqueous phase:CH3OH:CHCl3=4:4:1) and resuspended in 1% SDS, 20 mM HEPES (pH 7.9) buffer with a concentration of 3.75 mg/mL. For 150 μg proteins, H2O (49 μL), 2.5×GalT labeling buffer (80 μL, final concentrations: 50 mM NaCl, 20 mM HEPES, 2% NP-40, pH 7.9), 100 mM MnCl2 (11 μL), 500 μM UDP-GalNAz (10 μL), 2 mg/mL GalT1 (Y289L) (10 μL) were added into cell lysates orderly. […]
For quantitative proteomics, after reaction with Biotin-Alkyne probe, proteins were precipitated and resuspended in 400 μL PBS containing 2% SDS. […]

B1: split OGA (N2+C3): split OGA fragments N2 and C3 without nanobody (protein)
chain 1: MEQKLISEEDLAIAMVQKESQATLEERESELSSNPAASAGASLEPPAAPAPGEDNPAGAGGAAVAGAAGGARRFLCGVVEGFYGRPWVMEQRKELFRRLQKWELNTYLYAPKDDYKHRMFWREMYSVEEAEQLMTLISAAREYEIEFIYAISPGLDITFSNPKEVSTLKRKLDQVSQFGCRSFALLFDDIDHNMCAADKEVFSSFAHAQVSITNEIYQYLGEPETFLFCPTEYCGTFCYPNVSQSPYLRTVGEKLLPGIEVLWTGPKVVSKEIPVESIEEVSKIIKRAPVIWDNIHANDYDQKRLFLGPYKGRSTELIPRLKGVLTNPNCEFEANYVAIHTLATWYKSNMNGVRKDVVMTDSEDSTVSIQIKLENEGSDEDIETDVLYSPQMALKLALTEWLQEFGVPHQYSSR
chain 2: MAYPYDVPDYAAIAEKPLYTAEPVTLEDLQLLADLFYLPYEHGPKGAQMLREFQWLRANSSVVSVNCKGKDSEKIEEWRSRAAKFEEMCGLVMGMFTRLSNCANRTILYDMYSYVWDIKSIMSMVKSFVQWLGCRSHSSAQFLIGDQEPWAFRGGLAGEFQRLLPIDGANDLFFQPP
B1 was tested, and the “global O-GlcNAc proteome versus inactive form” value was “no significant difference from that of the inactive form”.
